The results in this text go back to patent US20230183351A1 (AVENCELL EUROPE, published 2023).

The target in this assay is T1, PD-L1 on PD-L1-positive target cell lines DU-145 and U-251 (human, UniProt Q9NZQ7 19-290).
T1 construct: also called Programmed death ligand 1; CD274
Description: flow cytometry on DU-145 and U-251 cells, shown as % binding of max over time at 4 C or 37 C.
Description: Data is shown as % binding of max by normalizing the obtained MFI to the highest MFI measured. […] Data is shown as mean ± SD of one experiment measured in technical triplicates.
Subsequently, stained target cells were incubated for indicated time points at either 4° C. or 37° C. Binding of PD-L1-specific TMs was analyzed via flow cytometry using an PE-labeled α-His Ab.

T1 sequence (Q9NZQ7 19-290): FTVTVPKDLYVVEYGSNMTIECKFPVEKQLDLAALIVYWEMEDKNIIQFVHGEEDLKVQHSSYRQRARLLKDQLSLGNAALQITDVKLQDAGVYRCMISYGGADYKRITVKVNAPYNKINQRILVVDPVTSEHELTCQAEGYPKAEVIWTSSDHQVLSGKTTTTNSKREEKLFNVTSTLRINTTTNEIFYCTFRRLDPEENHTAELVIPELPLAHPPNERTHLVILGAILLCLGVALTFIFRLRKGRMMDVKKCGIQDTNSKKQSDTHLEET

B1: TM-PD-L1-scFv5 (scFv)
scFv: GQVQLVQSGAEVKKPGASVKVSCKASGYTFTDYGFSWVRQAPGQGLEWMGWITAYNGNTNYAQKLQGRVTMTTDTSTSTVYMELRSLRSDDTAVYYCARDYFYGMDVWGQGTTVTVSSGGGGSGGGGSGGGGSEIVLTQSPATLSLSPGERATLSCRASQSVSSYLVWYQQKPGQAPRLLIYDASNRATGIPARFSGSGSGTDFTLTISSLEPEDFAVYYCQQRSNWPRTFGQGTKVEIKAAAKPLPEVTDEYARGGPGGGGSHHHHHHHH
notes: also called TMPD-L1v5
For B1, the binding result is “binds”.
